Reference: the supplement of paper PMC11316812
± gives the standard deviation of the averaged measurements.

What was measured:
hTERT-HMEC = assay: percentage of EdU-negative (G0-arrested) nuclei per well, 72 h; higher = more G0 arrest; settings: reference: sequence is the full UniProt precursor, the tested protein was the secreted form or ectodomain
MCF7 = assay: as above; settings: reference: sequence is the full UniProt precursor, the tested protein was the secreted form or ectodomain
[1] = protein concentration 0.00592 µM
[2] = protein concentration 0.0592 µM
[3] = protein concentration 0.0257143 µM
[4] = protein concentration 0.257143 µM
[5] = protein concentration 0.0140425 µM
[6] = protein concentration 0.140425 µM
[7] = protein concentration 0.0197143 µM
[8] = protein concentration 0.197143 µM
[9] = protein concentration 0.0225 µM
[10] = protein concentration 0.03092 µM
[11] = protein concentration 0.3092 µM
[12] = protein concentration 0.03125 µM
[13] = protein concentration 0.3125 µM
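Also: secreted proteins added to cultured cells, EdU pulse at the end, nuclei found by Hoechst imaging, EdU status from nuclear versus surrounding ring intensity ratio, PBS as neutral control.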

MHLIDYLLLLLVGLLALSHGQLHVEHDGESCSNSSHQQILETGEGSPSLKIAPANADFAFRFYYLIASETPGKNIFFSPLSISAAYAMLSLGACSHSRSQILEGLGFNLTELSESDVHRGFQHLLHTLNLPGHGLETRVGSALFLSHNLKFLAKFLNDTMAVYEAKLFHTNFYDTVGTIQLINDHVKKETRGKIVDLVSELKKDVLMVLVNYIYFKALWEKPFISSRTTPKDFYVDENTTVRVPMMLQDQEHHWYLHDRYLPCSVLRMDYKGDATVFFILPNQGKMREIEEVLTPEMLMRWNNLLRKRNFYKKLELHLPKFSISGSYVLDQILPRLGFTDLFSKWADLSGITKQQKLEASKSFHKATLDVDEAGTEAAAATSFAIKFFSAQTNRHILRFNRPFLVVIFSTSTQSVLFLGKVVDPTKP
percentage of EdU-negative (hTERT-HMEC; protein concentration 0.022 µM): 4.571 ± 0.028% | percentage of EdU-negative (hTERT-HMEC; protein concentration 0.22 µM): 4.09 ± 0.62% | percentage of EdU-negative (MCF7; protein concentration 0.022 µM): 25 ± 1.3% | percentage of EdU-negative (MCF7; protein concentration 0.22 µM): 28.9 ± 0.99%

MHLLGFFSVACSLLAAALLPGPREAPAAAAAFESGLDLSDAEPDAGEATAYASKDLEEQLRSVSSVDELMTVLYPEYWKMYKCQLRKGGWQHNREQANLNSRTEETIKFAAAHYNTEILKSIDNEWRKTQCMPREVCIDVGKEFGVATNTFFKPPCVSVYRCGGCCNSEGLQCMNTSTSYLSKTLFEITVPLSQGPKPVTISFANHTSCRCMSKLDVYRQVHSIIRRSLPATLPQCQAANKTCPTNYMWNNHICRCLAQEDFMFSSDAGDDSTDGFHDICGPNKELDEETCQCVCRAGLRPASCGPHKELDRNSCQCVCKNKLFPSQCGANREFDENTCQCVCKRTCPRNQPLNPGKCACECTESPQKCLLKGKKFHHQTCSCYRRPCTNRQKACEPGFSYSEEVCRCVPSYWKRPQMS
percentage of EdU-negative (hTERT-HMEC; [1]): 5.07 ± 0.77% | percentage of EdU-negative (hTERT-HMEC; [2]): 5.93 ± 0.55% | percentage of EdU-negative (MCF7; [1]): 25.4 ± 0.75% | percentage of EdU-negative (MCF7; [2]): 25.31 ± 0.24%

MHLLLFQLLVLLPLGKTTRHQDGRQNQSSLSPVLLPRNQRELPTGNHEEAEEKPDLFVAVPHLVATSPAGEGQRQREKMLSRFGRFWKKPEREMHPSRDSDSEPFPPGTQSLIQPIDGMKMEKSPLREEAKKFWHHFMFRKTPASQGVILPIKSHEVHWETCRTVPFSQTITHEGCEKVVVQNNLCFGKCGSVHFPGAAQHSHTSCSHCLPAKFTTMHLPLNCTELSSVIKVVMLVEECQCKVKTEHEDGHILHAGSQDSFIPGVSA
percentage of EdU-negative (hTERT-HMEC; [3]): 4.67 ± 0.26% | percentage of EdU-negative (hTERT-HMEC; [4]): 5.44 ± 1.3% | percentage of EdU-negative (MCF7; [3]): 23.4 ± 3.4% | percentage of EdU-negative (MCF7; [4]): 24.2 ± 0.59%

MHLRLISWLFIILNFMEYIGSQNASRGRRQRRMHPNVSQGCQGGCATCSDYNGCLSCKPRLFFALERIGMKQIGVCLSSCPSGYYGTRYPDINKCTKCKADCDTCFNKNFCTKCKSGFYLHLGKCLDNCPEGLEANNHTMECVSIVHCEVSEWNPWSPCTKKGKTCGFKRGTETRVREIIQHPSAKGNLCPPTNETRKCTVQRKKCQKGERGKKGRERKRKKPNKGESKEAIPDSKSLESSKEIPEQRENKQQQKKRKVQDKQKSVSVSTVH [Q9BXY4]
percentage of EdU-negative (hTERT-HMEC; [5]): 4.43 ± 0.65% | percentage of EdU-negative (hTERT-HMEC; [6]): 5.27 ± 0.29% | percentage of EdU-negative (MCF7; [5]): 23.8 ± 0.26% | percentage of EdU-negative (MCF7; [6]): 24.3 ± 1.6%

MHPHRDPRGLWLLLPSLSLLLFEVARAGRAVVSCPAACLCASNILSCSKQQLPNVPHSLPSYTALLDLSHNNLSRLRAEWTPTRLTQLHSLLLSHNHLNFISSEAFSPVPNLRYLDLSSNQLRTLDEFLFSDLQVLEVLLLYNNHIMAVDRCAFDDMAQLQKLYLSQNQISRFPLELVKEGAKLPKLTLLDLSSNKLKNLPLPDLQKLPAWIKNGLYLHNNPLNCDCELYQLFSHWQYRQLSSVMDFQEDLYCMNSKKLHNVFNLSFLNCGEYKERAWEAHLGDTLIIKCDTKQQGMTKVWVTPSNERVLDEVTNGTVSVSKDGSLLFQQVQVEDGGVYTCYAMGETFNETLSVELKVHNFTLHGHHDTLNTAYTTLVGCILSVVLVLIYLYLTPCRCWCRGVEKPSSHQGDSLSSSMLSTTPNHDPMAGGDKDDGFDRRVAFLEPAGPGQGQNGKLKPGNTLPVPEATGKGQRRMSDPESVSSVFSDTPIVV [Q86WK6]
percentage of EdU-negative (hTERT-HMEC; [7]): 6.07 ± 0.64% | percentage of EdU-negative (hTERT-HMEC; [8]): 17.3 ± 0.43% | percentage of EdU-negative (MCF7; [7]): 21.9 ± 0.6% | percentage of EdU-negative (MCF7; [8]): 29.5 ± 1.3%

MHQMNAKMHFRFVFALLIVSFNHDVLGKNLKYRIYEEQRVGSVIARLSEDVADVLLKLPNPSTVRFRAMQRGNSPLLVVNEDNGEISIGATIDREQLCQKNLNCSIEFDVITLPTEHLQLFHIEVEVLDINDNSPQFSRSLIPIEISESAAVGTRIPLDSAFDPDVGENSLHTYSLSANDFFNIEVRTRTDGAKYAELIVVRELDRELKSSYELQLTASDMGVPQRSGSSILKISISDSNDNSPAFEQQSYIIQLLENSPVGTLLLDLNATDPDEGANGKIVYSFSSHVSPKIMETFKIDSERGHLTLFKQVDYEITKSYEIDVQAQDLGPNSIPAHCKIIIKVVDVNDNKPEININLMSPGKEEISYIFEGDPIDTFVALVRVQDKDSGLNGEIVCKLHGHGHFKLQKTYENNYLILTNATLDREKRSEYSLTVIAEDRGTPSLSTVKHFTVQINDINDNPPHFQRSRYEFVISENNSPGAYITTVTATDPDLGENGQVTYTILESFILGSSITTYVTIDPSNGAIYALRIFDHEEVSQITFVVEARDGGSPKQLVSNTTVVLTIIDENDNVPVVIGPALRNNTAEITIPKGAESGFHVTRIRAIDRDSGVNAELSCAIVAGNEENIFIIDPRSCDIHTNVSMDSVPYTEWELSVIIQDKGNPQLHTKVLLKCMIFEYAESVTSTAMTSVSQASLDVSMIIIISLGAICAVLLVIMVLFATRCNREKKDTRSYNCRVAESTYQHHPKRPSRQIHKGDITLVPTINGTLPIRSHHRSSPSSSPTLERGQMGSRQSHNSHQSLNSLVTISSNHVPENFSLELTHATPAVEQVSQLLSMLHQGQYQPRPSFRGNKYSRSYRYALQDMDKFSLKDSGRGDSEAGDSDYDLGRDSPIDRLLGEGFSDLFLTDGRIPAAMRLCTEECRVLGHSDQCWMPPLPSPSSDYRSNMFIPGEEFPTQPQQQHPHQSLEDDAQPADSGEKKKSFSTFGKDSPNDEDTGDTSTSSLLSEMSSVFQRLLPPSLDTYSECSEVDRSNSLERRKGPLPAKTVGYPQGVAAWAASTHFQNPTTNCGPPLGTHSSVQPSSKWLPAMEEIPENYEEDDFDNVLNHLNDGKHELMDASELVAEINKLLQDVRQS [Q9HCL0]
percentage of EdU-negative (hTERT-HMEC; [9]): 3.86 ± 0.13% | percentage of EdU-negative (hTERT-HMEC; protein concentration 0.225 µM): 11.6 ± 1.6% | percentage of EdU-negative (MCF7; [9]): 28.4 ± 2% | percentage of EdU-negative (MCF7; protein concentration 0.225 µM): 32.5 ± 0.58%

MHSFPPLLLLLFWGVVSHSFPATLETQEQDVDLVQKYLEKYYNLKNDGRQVEKRRNSGPVVEKLKQMQEFFGLKVTGKPDAETLKVMKQPRCGVPDVAQFVLTEGNPRWEQTHLTYRIENYTPDLPRADVDHAIEKAFQLWSNVTPLTFTKVSEGQADIMISFVRGDHRDNSPFDGPGGNLAHAFQPGPGIGGDAHFDEDERWTNNFREYNLHRVAAHELGHSLGLSHSTDIGALMYPSYTFSGDVQLAQDDIDGIQAIYGRSQNPVQPIGPQTPKACDSKLTFDAITTIRGEVMFFKDRFYMRTNPFYPEVELNFISVFWPQLPNGLEAAYEFADRDEVRFFKGNKYWAVQGQNVLHGYPKDIYSSFGFPRTVKHIDAALSEENTGKTYFFVANKYWRYDEYKRSMDPGYPKMIAHDFPGIGHKVDAVFMKDGFFYFFHGTRQYKFDPKTKRILTLQKANSWFNCRKN
percentage of EdU-negative (hTERT-HMEC; [10]): 4.22 ± 0.79% | percentage of EdU-negative (hTERT-HMEC; [11]): 6.403 ± 0.048% | percentage of EdU-negative (MCF7; [10]): 24.3 ± 3.2% | percentage of EdU-negative (MCF7; [11]): 26.43 ± 0.08%

MHYCVLSAFLILHLVTVALSLSTCSTLDMDQFMRKRIEAIRGQILSKLKLTSPPEDYPEPEEVPPEVISIYNSTRDLLQEKASRRAAACERERSDEEYYAKEVYKIDMPPFFPSENAIPPTFYRPYFRIVRFDVSAMEKNASNLVKAEFRVFRLQNPKARVPEQRIELYQILKSKDLTSPTQRYIDSKVVKTRAEGEWLSFDVTDAVHEWLHHKDRNLGFKISLHCPCCTFVPSNNYIIPNKSEELEARFAGIDGTSTYTSGDQKTIKSTRKKNSGKTPHLLLMLLPSYRLESQQTNRRKKRALDAAYCFRNVQDNCCLRPLYIDFKRDLGWKWIHEPKGYNANFCAGACPYLWSSDTQHSRVLSLYNTINPEASASPCCVSQDLEPLTILYYIGKTPKIEQLSNMIVKSCKCS
percentage of EdU-negative (hTERT-HMEC; [12]): 4.63 ± 1.4% | percentage of EdU-negative (hTERT-HMEC; [13]): 15.8 ± 4.9% | percentage of EdU-negative (MCF7; [12]): 30.8 ± 2.4% | percentage of EdU-negative (MCF7; [13]): 40.6 ± 2.4%

MIAFLLTSVLMIPHAGGHPLDTPHLPQELPPGLPNNINITFFSGMFKNVESVAEIFDCLGPHFTWLQAVFTNFPVLIQFVNGMKCVAGLCPRDFEDYGCTCRFEMEGLPVDESDSCCFQHRRCYEEAAEMDCLQDPAKLSTEVNCVSKKIICESKDNCEHLLCTCDKAAIECLARSSLNSSLNLLDTSFCLAQTPETTIKEDLTTLLPRVVPVEPTDTSLTALSGEEAGHDQEGVGAARATSPPGSAEIVATRVTAKIVTLVPAGIKSLGLAVSSVENDPEETTEKACDRFTFLHLGSGDNMQVMPQLGEMLFCLTSRCPEEFESYGCYCGQEGRGEPRDDLDRCCLSHHCCLEQVRRLGCLLERLPWSPVVCVDHTPKCGGQSLCEKLLCACDQTAAECMTSASFNQSLKSPSRLGCPGQPAACEDSLHPVPAAPTLGSSSEEDSEEDPPQEDLGRAKRFLRKSLGPLGIGPLHGR
percentage of EdU-negative (hTERT-HMEC; [9]): 5.21 ± 0.36% | percentage of EdU-negative (hTERT-HMEC; protein concentration 0.225 µM): 5.66 ± 0.11% | percentage of EdU-negative (MCF7; [9]): 26.2 ± 2.5% | percentage of EdU-negative (MCF7; protein concentration 0.225 µM): 25.7 ± 0.78%

MICLVLTIFANLFPAACTGAHERTFLAVKPDGVQRRLVGEIVRRFERKGFKLVALKLVQASEELLREHYAELRERPFYGRLVKYMASGPVVAMVWQGLDVVRTSRALIGATNPADAPPGTIRGDFCIEVGKNLIHGSDSVESARREIALWFRADELLCWEDSAGHWLYE
percentage of EdU-negative (hTERT-HMEC; [9]): 4.25 ± 0.15% | percentage of EdU-negative (hTERT-HMEC; protein concentration 0.225 µM): 5.77 ± 0.68% | percentage of EdU-negative (MCF7; [9]): 25.5 ± 3.9% | percentage of EdU-negative (MCF7; protein concentration 0.225 µM): 22.9 ± 1.8%
